Measured values published in PMC2897767, “Two Distinct Mechanisms for Actin Capping Protein Regulation—Steric and Allosteric Inhibition” (PLoS Biology, 2010).

Biological target: GST-V-1 (human) (UniProt P58546)
Experiment: SPR; GST-fusion protein (GST-V-1, GST-CA or GST-CD) immobilised on a CM5 chip via anti-GST antibodies (up to 200 RU), CP perfused at 20 µl/min; 20°C; 50 mM KCl, 1 mM MgCl2, 0.005% Tween-20, 10 mM imidazole pH 7.0; 1:1 fit, KD from the kinetic rate constants (steady state for several fast-dissociating mutants)

Chain of GST-V-1 (human) (P58546 whole entry, the tested form may be a part): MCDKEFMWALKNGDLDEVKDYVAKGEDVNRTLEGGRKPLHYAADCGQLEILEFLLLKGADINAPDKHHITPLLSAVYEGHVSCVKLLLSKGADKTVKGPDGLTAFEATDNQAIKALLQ

CP with mutations of residues which form the “basic triad” (CP (α) Lys256, Arg260, Arg266)
fold reduction of the affinity against the wild type proteins: > 25 fold
